# Reference: article PMC8613289
# How the values were obtained:
# Test in all cases: TurboID proximity biotinylation, streptavidin pull-down, MS-based proteomics
# Conditions in all cases: biotin for 1 h; n = 5; read off a plot
# AHCTF1 = target: AHCTF1
# Nup214 = Nup214 (UniProt P35658)
# Nup50 = Nup50 (UniProt Q9UKX7)
# RANGAP1 = target: RANGAP1
# RanBP2 = RanBP2 (UniProt P49792)
# NDC1 = target: NDC1
# NUPL2 = target: NUPL2
Substance,other: Student's T-test Difference WT NLS2 (AHCTF1),other: Student's T-test Difference WT NLS2 (Nup214),other: Student's T-test Difference WT NLS2 (Nup50),other: Student's T-test Difference WT NLS2 (RANGAP1),other: Student's T-test Difference WT NLS2 (RanBP2),other: Student's T-test Difference WT NLS1 (AHCTF1),other: Student's T-test Difference WT NLS1 (NDC1),other: Student's T-test Difference WT NLS1 (NUPL2),other: Student's T-test Difference WT NLS1 (Nup214),other: Student's T-test Difference WT NLS1 (Nup50),other: Student's T-test Difference WT NLS1 (RANGAP1),other: Student's T-test Difference WT NLS1 (RanBP2)
"EphA2-V5-TurboID (wild-type EphA2) (from UniProt P29317) NLS2 (two K>A in the stretch …, as read from Fig. 3a; no residue numbers printed)",1.3,2.9,3.1,2.6,2.1,–,–,–,–,–,–,–
"EphA2-V5-TurboID (wild-type EphA2) (from UniProt P29317) NLS1 (RRR>AAA in the juxtamembrane stretch …, as read from Fig. 3a; no residue numbers printed)",–,–,–,–,–,0.5,-1,-1.6,2,2.5,1.8,1.5
